± gives the uncertainty stated by the source.
Assay: protein stability index of a GFP-peptide fusion (yeast GPS) (PSI 1-4); higher = more stable; sorted into four equal gates, so the index is relative within each strain
Summary of the method: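 Each library plasmid carries Cherry plus GFP with a tiled 17-residue yeast protein peptide fused downstream, and the pooled library was carried in yeast. Mid-log cultures in leucine-free medium were sorted into four equal gates by GFP/Cherry ratio. Reads from Illumina sequencing of PCR-amplified plasmids from each gate were assigned to strains by barcodes. Per peptide, the protein stability index was computed as the summed products of gate read frequency and gate number.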

Sequence	protein stability index (doa10∆)	protein stability index (pdr5∆)	protein stability index (san1∆)	protein stability index (ubr1∆)
LKGRVVEVCLADLQGSE [RPS1A]	2.65 ± 0.062	3.08 ± 0.071	2.51 ± 0.076	2.49 ± 0.055
LLDVKLAIDNMYILGMC [YCG1]	1.56 ± 0.086	1.51 ± 0.051	1.86 ± 0.071	2.12 ± 0.05
AQSVGCRVDFKNPHDII [RPL12A]	2.15 ± 0.061	2.4 ± 0.078	2.23 ± 0.12	2.32 ± 0.1
RLGSKKLVEIIWNDVVY [YJL039C/NUP192]	3.4 ± 0.17	3.43 ± 0.12	3.46 ± 0.082	3.35 ± 0.08
VRAEELNISGEFFRNKL [RPL16A]	3.67 ± 0.21	3.17 ± 0.23	3.07 ± 0.18	3.36 ± 0.2
VLSINPDMYERKVENIR [MED7]	2.81 ± 0.08	3.03 ± 0.086	2.79 ± 0.052	2.79 ± 0.062
LIQQVPPGLDALVKPET [CDC53]	3.02 ± 0.12	2.98 ± 0.13	2.83 ± 0.13	3.24 ± 0.14
FLDGIYVSHKGFITEDL [RPL9A]	2.38 ± 0.081	2.62 ± 0.063	2.43 ± 0.1	3.29 ± 0.07
KENLSKSSWRQEWLANL [SIR4]	1.98 ± 0.048	1.68 ± 0.034	1.92 ± 0.07	2.55 ± 0.026
LTKKKNEEINKKSLEED [SEM1]		3.31 ± 0.11	2.77 ± 0.18	
SSFRPCPLSQQFCGIKE [BRR2]	2.45 ± 0.073	1.9 ± 0.054	2.38 ± 0.068	2.31 ± 0.037
EELVSLAVFLFDIYNRD [YJL039C/NUP192]	2.03 ± 0.099	1.24 ± 0.059	1.41 ± 0.2	1.39 ± 0.071
SKEDTLRLCLDIVPYFL [RPN1]	1.92 ± 0.05	1.92 ± 0.033	1.58 ± 0.081	2.12 ± 0.057
SKLRNNIRSQLLSENRS [SRP54]	2.8 ± 0.069	2.58 ± 0.094	2.67 ± 0.06	2.85 ± 0.049
LDSNNNNSNSNNNDNNN [SWI1]	2.65 ± 0.035	2.74 ± 0.039	2.79 ± 0.028	2.71 ± 0.029
PLPVETPRDRRKSVFAP [SSN2]	2.67 ± 0.069	2.31 ± 0.077	2.99 ± 0.099	2.86 ± 0.049
KIREDHINKIPSNSTTT [SRB8]	2.63 ± 0.051	2.71 ± 0.044	2.54 ± 0.056	2.81 ± 0.034
SHGNPVVDFLKRNGSTL [FAS1]	3.02 ± 0.052	3.17 ± 0.049	3.1 ± 0.043	3.11 ± 0.038
IWLLSYIQYLGHLPEVS [ECM29]	1.62 ± 0.071	1.9 ± 0.06	2.21 ± 0.063	1.92 ± 0.057
IILSIDEHHESFELKEE [RRP6]	3.19 ± 0.1	2.99 ± 0.15	3.08 ± 0.08	2.98 ± 0.088
FASNKKINDESSIDKKS [YML103C/NUP188]	2.5 ± 0.066	2.92 ± 0.073	2.64 ± 0.068	3.14 ± 0.067
HKDSFYDRATLTQLLSM [RPO31]	1.79 ± 0.066	2.09 ± 0.062	2.09 ± 0.071	1.35 ± 0.04
VLIKKGQSAGKLAAIVE [RPL14A]	2.99 ± 0.2	3.14 ± 0.16		2.77 ± 0.18
SVYGLDDISRQVARTNL [ROX3]	2.06 ± 0.058	2.7 ± 0.059	1.96 ± 0.1	2.94 ± 0.046

Sequence	protein stability index (doa10∆)	protein stability index (pdr5∆)	protein stability index (san1∆)	protein stability index (ubr1∆)
WPQSKNCEYEDPPNEGD [RPB3]	3.45 ± 0.25			3.2 ± 0.14
GENDDDTLDGDLMDDMS [RPN3]	2.73 ± 0.17	2.7 ± 0.075	2.11 ± 0.12	2.15 ± 0.1
NECIASTSNALKVLSGD [SNF12]	2.89 ± 0.059	2.86 ± 0.07	2.86 ± 0.05	2.79 ± 0.062
DIFVYLTYDKDLTNNPQ [MTR3]	2.1 ± 0.05	1.98 ± 0.073	2.35 ± 0.1	2.28 ± 0.065
NHTAHNQTRKAHRNGIK [RPL29]	1.88 ± 0.047	2.56 ± 0.059	2.32 ± 0.06	2.57 ± 0.052
NQQQQQQQQQQQQRRQL [GAL11]	2.79 ± 0.056	2.9 ± 0.063	2.84 ± 0.043	2.91 ± 0.051
GDKEATAPLIQRKNKKN [RPN8]	3.22 ± 0.15	3.42 ± 0.12	3.18 ± 0.088	3.15 ± 0.18
QVEYALEAIKQGSVTVG [PRE5]	2.92 ± 0.12	3.33 ± 0.21	3.14 ± 0.17	3.09 ± 0.18
GSKLEDMSKILVDQGFN [RET1]	3.14 ± 0.066	3.2 ± 0.072	3.31 ± 0.034	3.29 ± 0.049
EYEKRNHGGSLGKYDLT [SRP68]	2.81 ± 0.18	2.56 ± 0.15	2.15 ± 0.14	1.3 ± 0.14
SLEDKILRMGAFRTIES [RRI1]	2.24 ± 0.17	2.04 ± 0.2	1.83 ± 0.18	2.28 ± 0.073
DGHYIEENSQGNILDFN [REC8]	3.23 ± 0.11	2.67 ± 0.098	2.89 ± 0.065	2.81 ± 0.1
DHNALPQRCTFAFEAID [POP1]	2.36 ± 0.09	2.84 ± 0.077	2.79 ± 0.089	3.09 ± 0.057
SYELIKEECQIEDDGII [CSN9]	2.77 ± 0.11	3.01 ± 0.088	3.06 ± 0.069	3.1 ± 0.054
MNRPGARVTRRKRCKGT [RPL11A]	3.05 ± 0.21	3.25 ± 0.13	3.46 ± 0.081	3.15 ± 0.13
SASHILIPASDLSWSKQ [PRP8]	1.48 ± 0.069	1.93 ± 0.058	1.53 ± 0.082	1.95 ± 0.038
LREFRITHNTNITDNLF [GRR1]	1.32 ± 0.15	1.28 ± 0.15		2.07 ± 0.11
RAQEEVKRIQSVPLVIG [RPT3]	3.52 ± 0.13	3.16 ± 0.15	3.04 ± 0.11	3.21 ± 0.066
NDEKRVKEEYDIWQSRD [YIL149C/MLP2]	3.22 ± 0.062	3.06 ± 0.078	3.25 ± 0.049	3.39 ± 0.084
SVFKGGMQNLIKKKKKK [SRP14]	2 ± 0.18	3.05 ± 0.3		
QIEKKEIKKMIITNINA [YCG1]	2.64 ± 0.11	2.75 ± 0.11	2.7 ± 0.13	2.47 ± 0.15
NEWIKAQEDVPYLLPYI [QCR7]	2.42 ± 0.095	2.46 ± 0.078	2.6 ± 0.077	2.5 ± 0.056
EVVEAVTVVDTPPVVVV [RPL3]	1.36 ± 0.05	1.67 ± 0.05	1.48 ± 0.095	1.47 ± 0.036
DDNNNNNNNNNNNNSTR [GRR1]	2.95 ± 0.045	3.02 ± 0.042	2.95 ± 0.041	3.03 ± 0.054

Reference: the supplement of paper PMC9732359
